± gives the uncertainty stated by the source.
B1: Activity-dependent neuroprotector homeobox protein, residues 770 to 810; numbered along this chain, Q9H2P0 (parent)
chain: FLTKYFNKQPYPTRREIEKLAASLWLWKSDIASHFSNKRKK

Variants of: B1
Experiment: abundance fitness (aPCA) (normalised: wild type 0, dead -1); higher = more abundant; growth selection in yeast, the domain comes from the species named
Details: Homo sapiens

Variant | abundance fitness
FLTKYFNKQPYPTRREIEKVAASLWLWKSDIASHFSNKRKK [L20V] | -0.025 ± 0.061
FLTKYFNKQPYPTRREIEKSAASLWLWKSDIASHFSNKRKK [L20S] | -0.243 ± 0.052
FLTKYFNKQPYPTRREIEKFAASLWLWKSDIASHFSNKRKK [L20F] | 0.042 ± 0.06
FLTKYFNKQPYPTRREIEKIAASLWLWKSDIASHFSNKRKK [L20I] | -0.005 ± 0.099
FLTKYFNKQPYPTRREIEKAAASLWLWKSDIASHFSNKRKK [L20A] | -0.038 ± 0.066
FLTKYFNKQPYPTRREIEKLAASDWLWKSDIASHFSNKRKK [L24D] | -0.033 ± 0.19
FLTKYFNKQPYPTRREIEKLAASCWLWKSDIASHFSNKRKK [L24C] | -0.122 ± 0.095
FLTKYFNKQPYPTRREIEKLAASAWLWKSDIASHFSNKRKK [L24A] | -0.026 ± 0.083
FLTKYFNKQPYPTRREIEKLAAPLWLWKSDIASHFSNKRKK [S23P] | -0.12 ± 0.061
FLTKYFNKQPYPTRREIEKLAAHLWLWKSDIASHFSNKRKK [S23H] | -0.103 ± 0.077
FLTKYFNKQPYPTRREIEKLAAFLWLWKSDIASHFSNKRKK [S23F] | -0.614 ± 0.13
FLTKYFNKQPYPTRREIEKLAALLWLWKSDIASHFSNKRKK [S23L] | -0.211 ± 0.081
FLTKYFNKQPYPTRREIEKLAAYLWLWKSDIASHFSNKRKK [S23Y] | -0.364 ± 0.2
FLTKYFNKQPYPTRREIEKLAATLWLWKSDIASHFSNKRKK [S23T] | -0.075 ± 0.086
FLTKYFNKQPYPTRREIEKLAAKLWLWKSDIASHFSNKRKK [S23K] | 0.262 ± 0.071
FLTKYFNKQPYPTRREIEKLAAWLWLWKSDIASHFSNKRKK [S23W] | -0.091 ± 0.14
FLTKYFNKQPYPTRREIEKLAAGLWLWKSDIASHFSNKRKK [S23G] | -0.182 ± 0.094
FLTKYFNKQPYPTRREIEKLAAALWLWKSDIASHFSNKRKK [S23A] | -0.177 ± 0.079
FLTKYFNKQPYPTRREIEKLAANLWLWKSDIASHFSNKRKK [S23N] | -0.074 ± 0.16
FLTKYFNKQPYPTRREIEKLAADLWLWKSDIASHFSNKRKK [S23D] | -0.002 ± 0.12
FLTKYFNKQPYPTRREIEKLAARLWLWKSDIASHFSNKRKK [S23R] | 0.276 ± 0.061

Variant | abundance fitness
FLTKYFNKQPYPTRREIEKLAAMLWLWKSDIASHFSNKRKK [S23M] | -0.36 ± 0.23
FLTKYFNKQPYPTRREIEKLAAVLWLWKSDIASHFSNKRKK [S23V] | -0.101 ± 0.085
FLTKYFNKQPYPTRREIEKLAAELWLWKSDIASHFSNKRKK [S23E] | -0.116 ± 0.13
FLTKYFNKQPYPTRREIEKLAAILWLWKSDIASHFSNKRKK [S23I] | -0.432 ± 0.094
FLTKYFNKQPYPTRREIEKLAACLWLWKSDIASHFSNKRKK [S23C] | -0.119 ± 0.082
FLTKYFNKQPYPTRREIEKLAAQLWLWKSDIASHFSNKRKK [S23Q] | -0.404 ± 0.28
FLTKYFNKQPYPTRREIEGLAASLWLWKSDIASHFSNKRKK [K19G] | -0.221 ± 0.06
FLTKYFNKQPYPTRREIEWLAASLWLWKSDIASHFSNKRKK [K19W] | -0.79 ± 0.2
FLTKYFNKQPYPTRREIELLAASLWLWKSDIASHFSNKRKK [K19L] | -0.63 ± 0.089
FLTKYFNKQPYPTRREIEALAASLWLWKSDIASHFSNKRKK [K19A] | -0.52 ± 0.07
FLTKYFNKQPYPTRREIEVLAASLWLWKSDIASHFSNKRKK [K19V] | -0.502 ± 0.082
FLTKYFNKQPYPTRREIEYLAASLWLWKSDIASHFSNKRKK [K19Y] | -0.764 ± 0.12
FLTKYFNKQPYPTRREIEPLAASLWLWKSDIASHFSNKRKK [K19P] | -0.864 ± 0.17
FLTKYFNKQPYPTRREIEELAASLWLWKSDIASHFSNKRKK [K19E] | -0.241 ± 0.11
FLTKYFNKQPYPTRREIEFLAASLWLWKSDIASHFSNKRKK [K19F] | -0.944 ± 0.14
FLTKYFNKQPYPTRREIEQLAASLWLWKSDIASHFSNKRKK [K19Q] | -0.276 ± 0.089
FLTKYFNKQPYPTRREIEDLAASLWLWKSDIASHFSNKRKK [K19D] | -0.099 ± 0.075
FLTKYFNKQPYPTRREIEHLAASLWLWKSDIASHFSNKRKK [K19H] | -0.413 ± 0.17
FLTKYFNKQPYPTRREIEILAASLWLWKSDIASHFSNKRKK [K19I] | -0.686 ± 0.18
FLTKYFNKQPYPTRREIESLAASLWLWKSDIASHFSNKRKK [K19S] | -0.413 ± 0.067
FLTKYFNKQPYPTRREIENLAASLWLWKSDIASHFSNKRKK [K19N] | -0.144 ± 0.092

Variant | abundance fitness
FLTKYFNKQPYPTRREIETLAASLWLWKSDIASHFSNKRKK [K19T] | -0.302 ± 0.06
FLTKYFNKQPYPTRREIECLAASLWLWKSDIASHFSNKRKK [K19C] | -0.502 ± 0.11
FLTKYFNKQPYPTRREIEKLACSLWLWKSDIASHFSNKRKK [A22C] | -0.229 ± 0.11
FLTKYFNKQPYPTRREIEKLATSLWLWKSDIASHFSNKRKK [A22T] | -0.087 ± 0.087
FLTKYFNKQPYPTRREIEKLAKSLWLWKSDIASHFSNKRKK [A22K] | 0.075 ± 0.091
FLTKYFNKQPYPTRREIEKLADSLWLWKSDIASHFSNKRKK [A22D] | -0.25 ± 0.11
FLTKYFNKQPYPTRREIEKLAYSLWLWKSDIASHFSNKRKK [A22Y] | -0.303 ± 0.063
FLTKYFNKQPYPTRREIEKLARSLWLWKSDIASHFSNKRKK [A22R] | -0.027 ± 0.052
FLTKYFNKQPYPTRREIEKLAISLWLWKSDIASHFSNKRKK [A22I] | -0.368 ± 0.13
FLTKYFNKQPYPTRREIEKLAMSLWLWKSDIASHFSNKRKK [A22M] | -0.084 ± 0.071
FLTKYFNKQPYPTRREIEKLAESLWLWKSDIASHFSNKRKK [A22E] | -0.162 ± 0.11
FLTKYFNKQPYPTRREIEKLAFSLWLWKSDIASHFSNKRKK [A22F] | -0.594 ± 0.077
FLTKYFNKQPYPTRREIEKLANSLWLWKSDIASHFSNKRKK [A22N] | -0.015 ± 0.064
FLTKYFNKQPYPTRREIEKLASSLWLWKSDIASHFSNKRKK [A22S] | -0.117 ± 0.059
FLTKYFNKQPYPTRREIEKLAWSLWLWKSDIASHFSNKRKK [A22W] | -0.193 ± 0.11
FLTKYFNKQPYPTRREIEKLAVSLWLWKSDIASHFSNKRKK [A22V] | -0.344 ± 0.055
FLTKYFNKQPYPTRREIEKLAGSLWLWKSDIASHFSNKRKK [A22G] | -0.058 ± 0.062
FLTKYFNKQPYPTRREIEKLALSLWLWKSDIASHFSNKRKK [A22L] | -0.396 ± 0.058
FLTKYFNKQPYPTRREIEKLAQSLWLWKSDIASHFSNKRKK [A22Q] | 0.045 ± 0.065
FLTKYFNKQPYPTRRYIEKLAASLWLWKSDIASHFSNKRKK [E16Y] | -0.096 ± 0.091

Source: the Human Domainome abundance scans (Beltran et al. 2025)
